From patent publication US20070286858A1

Key:
[1] = molecular target: human RAGE-Fc fusion protein (human) (UniProt Q15109); test: ligand competition ELISA, panel Blocks hRAGE-Fc interaction with S100-A; blocked ligand S100-A
[2] = molecular target: cynomolgus monkey RAGE (cynomolgus monkey (Macaca fascicularis)); test: cell-based ELISA, 293 cells transfected with cynomolgus monkey RAGE
[3] = molecular target: murine RAGE-strep tag fusion protein (mouse) (UniProt Q62151); test: BIACORE capture, SA-Mu RAGE over captured antibody, 1:1 Langmuir global fit, row Average
murine RAGE-strep tag fusion protein (mouse), sequence (Q62151 other isoform, or with tags, fused parts or gaps): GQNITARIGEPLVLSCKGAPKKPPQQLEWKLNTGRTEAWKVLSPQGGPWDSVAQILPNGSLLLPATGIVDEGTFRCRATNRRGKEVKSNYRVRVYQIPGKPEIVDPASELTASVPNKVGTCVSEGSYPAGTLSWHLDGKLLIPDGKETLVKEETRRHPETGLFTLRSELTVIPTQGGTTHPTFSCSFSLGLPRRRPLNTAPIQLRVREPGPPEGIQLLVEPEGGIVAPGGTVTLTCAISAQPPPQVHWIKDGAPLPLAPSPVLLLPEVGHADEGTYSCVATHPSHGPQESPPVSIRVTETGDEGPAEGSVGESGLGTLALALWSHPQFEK

[4] = molecular target: soluble human streptavidin-tagged RAGE (human) (UniProt Q15109); test: BIACORE capture, hRAGE-SA over captured antibody, 1:1 Langmuir global fit, row Average
[5] = molecular target: human RAGE-Fc fusion protein (human) (UniProt Q15109); test: ligand competition ELISA, panel Blocks hRAGE-Fc interaction with HMGB1; blocked ligand HMGB1
[6] = molecular target: murine RAGE-strep tag fusion protein (mouse) (UniProt Q62151); test: BIACORE capture, SA-Mu RAGE over captured antibody, 1:1 Langmuir global fit, FC3
[7] = molecular target: murine RAGE-strep tag fusion protein (mouse) (UniProt Q62151); test: BIACORE capture, SA-Mu RAGE over captured antibody, 1:1 Langmuir global fit, FC2
[8] = molecular target: murine RAGE-strep tag fusion protein (mouse) (UniProt Q62151); test: BIACORE capture, SA-Mu RAGE over captured antibody, 1:1 Langmuir global fit, FC4
[9] = molecular target: soluble human streptavidin-tagged RAGE (human) (UniProt Q15109); test: BIACORE capture assay, antibody on CM5 chip, hRAGE-SA 0-100 nM in solution
[10] = molecular target: human RAGE, full length (human) (UniProt Q15109); test: cell-based ELISA, 293 cells transfected with human RAGE
[11] = molecular target: human RAGE-Fc fusion protein (human) (UniProt Q15109); test: ligand competition ELISA, panel Blocks hRAGE-Fc interaction with A-beta; blocked ligand amyloid beta 1-42 peptide
rhVCAM-1 (human) = rhVCAM-1 (human) (UniProt P19320); test: direct binding ELISA, receptor coated at 1 µg/ml, antibody at 20 µg/ml
rhVCAM-1 (human), sequence (P19320 25-698 limits assumed): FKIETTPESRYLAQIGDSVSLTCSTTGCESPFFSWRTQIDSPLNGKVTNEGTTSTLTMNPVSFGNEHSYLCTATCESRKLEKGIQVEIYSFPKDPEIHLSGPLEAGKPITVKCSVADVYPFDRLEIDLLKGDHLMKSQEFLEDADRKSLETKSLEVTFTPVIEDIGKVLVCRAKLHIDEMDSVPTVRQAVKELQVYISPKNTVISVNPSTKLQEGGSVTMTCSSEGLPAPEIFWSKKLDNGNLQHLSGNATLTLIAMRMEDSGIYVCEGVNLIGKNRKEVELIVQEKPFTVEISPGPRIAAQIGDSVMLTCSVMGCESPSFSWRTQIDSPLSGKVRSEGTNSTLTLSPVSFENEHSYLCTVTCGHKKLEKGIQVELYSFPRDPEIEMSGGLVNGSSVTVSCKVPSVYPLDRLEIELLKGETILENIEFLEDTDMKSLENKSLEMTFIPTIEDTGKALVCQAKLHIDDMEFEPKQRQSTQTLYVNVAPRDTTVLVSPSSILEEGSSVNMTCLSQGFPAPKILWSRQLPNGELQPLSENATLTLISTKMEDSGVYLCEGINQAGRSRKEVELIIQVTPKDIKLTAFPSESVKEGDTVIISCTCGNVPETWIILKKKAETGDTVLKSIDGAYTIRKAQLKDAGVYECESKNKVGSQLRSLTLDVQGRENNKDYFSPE

[12] = molecular target: rhTLR4 (C-terminal His tag) (human) (UniProt O00206); test: as above
rhTLR4 (C-terminal His tag) (human), sequence (O00206 24-631 limits assumed): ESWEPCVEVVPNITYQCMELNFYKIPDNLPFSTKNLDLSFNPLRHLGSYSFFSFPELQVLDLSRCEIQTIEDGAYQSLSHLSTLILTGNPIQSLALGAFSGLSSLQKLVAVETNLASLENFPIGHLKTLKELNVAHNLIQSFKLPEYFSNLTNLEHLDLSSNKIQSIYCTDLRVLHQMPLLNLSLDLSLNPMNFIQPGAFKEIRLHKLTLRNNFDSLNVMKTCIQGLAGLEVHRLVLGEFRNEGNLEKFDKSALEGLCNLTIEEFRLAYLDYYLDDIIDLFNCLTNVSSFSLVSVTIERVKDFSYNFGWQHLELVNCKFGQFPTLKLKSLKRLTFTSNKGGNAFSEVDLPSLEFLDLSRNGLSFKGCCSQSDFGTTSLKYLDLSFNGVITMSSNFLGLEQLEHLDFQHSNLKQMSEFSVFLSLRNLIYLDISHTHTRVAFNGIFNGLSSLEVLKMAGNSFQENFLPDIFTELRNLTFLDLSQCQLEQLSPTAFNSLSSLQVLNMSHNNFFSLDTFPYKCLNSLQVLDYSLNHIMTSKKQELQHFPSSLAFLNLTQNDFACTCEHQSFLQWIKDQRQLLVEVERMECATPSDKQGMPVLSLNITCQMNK

rhB7-H1-Fc (human) = rhB7-H1-Fc (human) (UniProt Q9NZQ7); test: as above
rhB7-H1-Fc (human), sequence (Q9NZQ7 19-239): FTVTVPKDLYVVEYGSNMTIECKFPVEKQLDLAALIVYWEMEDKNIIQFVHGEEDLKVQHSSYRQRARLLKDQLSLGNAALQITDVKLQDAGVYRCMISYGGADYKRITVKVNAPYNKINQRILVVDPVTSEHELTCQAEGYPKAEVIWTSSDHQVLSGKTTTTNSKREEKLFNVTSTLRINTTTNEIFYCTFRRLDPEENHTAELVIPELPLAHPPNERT

rhICAM-1-Fc (human) = rhICAM-1-Fc (human) (UniProt P05362); test: as above
rhICAM-1-Fc (human), sequence (P05362 28-480): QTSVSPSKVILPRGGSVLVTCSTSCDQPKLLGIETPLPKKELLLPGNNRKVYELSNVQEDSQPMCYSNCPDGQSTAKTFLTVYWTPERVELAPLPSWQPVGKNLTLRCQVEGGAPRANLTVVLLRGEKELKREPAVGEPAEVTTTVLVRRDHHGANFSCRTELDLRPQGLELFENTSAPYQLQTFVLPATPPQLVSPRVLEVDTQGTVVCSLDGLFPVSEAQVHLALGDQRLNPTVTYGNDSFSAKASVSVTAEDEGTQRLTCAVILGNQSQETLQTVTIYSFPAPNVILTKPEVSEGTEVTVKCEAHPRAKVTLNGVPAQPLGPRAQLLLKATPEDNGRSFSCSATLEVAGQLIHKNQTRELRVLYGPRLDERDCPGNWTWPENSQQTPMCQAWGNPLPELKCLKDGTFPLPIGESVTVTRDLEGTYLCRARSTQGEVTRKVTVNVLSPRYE

mLox1-Fc (mouse) = mLox1-Fc (mouse) (UniProt Q9EQ09); test: as above
mLox1-Fc (mouse), sequence (Q9EQ09 60-363): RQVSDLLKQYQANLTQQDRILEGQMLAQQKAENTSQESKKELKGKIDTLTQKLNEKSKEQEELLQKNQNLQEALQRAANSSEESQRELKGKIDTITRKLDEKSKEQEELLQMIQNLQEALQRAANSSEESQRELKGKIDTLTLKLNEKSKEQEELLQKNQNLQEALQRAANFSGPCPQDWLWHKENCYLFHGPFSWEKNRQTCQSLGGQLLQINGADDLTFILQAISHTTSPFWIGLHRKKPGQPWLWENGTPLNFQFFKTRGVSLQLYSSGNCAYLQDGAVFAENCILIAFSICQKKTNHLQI

rhNCAM-1 (human) = rhNCAM-1 (human) (UniProt P13591); test: as above
rhNCAM-1 (human), sequence (P13591 other isoform, or with tags, fused parts or gaps limits assumed): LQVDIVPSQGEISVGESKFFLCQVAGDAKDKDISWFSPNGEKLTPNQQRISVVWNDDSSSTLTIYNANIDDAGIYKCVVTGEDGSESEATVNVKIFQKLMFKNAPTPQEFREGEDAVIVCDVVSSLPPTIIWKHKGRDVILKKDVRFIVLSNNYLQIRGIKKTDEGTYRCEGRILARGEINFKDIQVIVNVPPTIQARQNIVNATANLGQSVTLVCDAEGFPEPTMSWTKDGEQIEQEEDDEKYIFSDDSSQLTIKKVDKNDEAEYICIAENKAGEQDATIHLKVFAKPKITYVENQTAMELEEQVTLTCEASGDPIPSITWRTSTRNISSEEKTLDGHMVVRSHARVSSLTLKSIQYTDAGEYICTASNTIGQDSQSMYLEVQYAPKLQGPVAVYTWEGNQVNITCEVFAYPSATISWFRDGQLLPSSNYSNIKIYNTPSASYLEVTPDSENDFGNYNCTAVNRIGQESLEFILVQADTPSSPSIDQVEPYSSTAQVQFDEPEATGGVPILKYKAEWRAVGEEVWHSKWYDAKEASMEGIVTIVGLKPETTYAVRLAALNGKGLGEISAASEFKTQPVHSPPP

[13] = molecular target: human RAGE-Fc fusion protein (human) (UniProt Q15109); test: as above
hLox1-Fc (human) = hLox1-Fc (human) (UniProt P78380); test: as above
[14] = molecular target: human RAGE-Fc fusion protein (human) (UniProt Q15109); test: ligand competition ELISA, panel Blocks hRAGE-Fc interaction with S100-B; blocked ligand S100-B
[15] = molecular target: human RAGE-Fc fusion protein (human) (UniProt Q15109); test: antibody competition ELISA on hRAGE-Fc; competitor biotinylated XT-M4
[16] = molecular target: soluble human streptavidin-tagged RAGE (human) (UniProt Q15109); test: BIACORE capture, hRAGE-SA over captured antibody, 1:1 Langmuir global fit, FC3

Substance: chimeric antibody XT-M4 (from UniProt P01857 1-330)
- IC50 (read off the curve) [1]: 0.09 µg/mL
- EC50 [2]: 1.66 nM
- Kd [3]: 1.9 nM
- Kd [4]: 7.91 nM
- IC50 (read off the curve) [5]: 0.1 µg/mL
- Kd [6]: 1.9 nM
- Kd [7]: 1.9 nM
- Kd [8]: 2 nM
- Ka [9]: 1.77e+08 M⁻¹
- Kd [9]: 5.66 nM
- EC50 [10]: 0.8 nM
- IC50 (read off the curve) [11]: 0.2 µg/mL
- OD450 (rhVCAM-1 (human)): 0.004
- OD450 [12]: 0
- OD450 (rhB7-H1-Fc (human)): 0.003
- OD450 (rhICAM-1-Fc (human)): 0.004
- OD450 (mLox1-Fc (mouse)): 0.01
- OD450 (rhNCAM-1 (human)): 0.006
- OD450 [13]: 3.8
- OD450 (hLox1-Fc (human)): 0.017
- IC50 (read off the curve) [14]: 0.08 µg/mL
- IC50 (read off the curve) [15]: 0.4 µg/mL
- Kd [16]: 7.33 nM
